One block for each molecule: values may come before it. Where no end group is shown, it is not given here.
Experiments:
[1] = system: chronically stimulated human PBMCs; settings: previously shown in WO2019/175885; dose dependent; cited from earlier work
MMP-2 [2] = target: T1, MMP-2 (Homo sapiens, UniProt P08253); experiment: Fluorogenic assay: cleavage of quenched fluorogenic human CD28 stalk region peptide by MMP-2; format: biochemical; settings: increasing dose of inhibitor; FIG. 1C
T1 construct: purchased AnaSpec and R&D Systems AS-72005 / 902-MP
T1 sequence (P08253 110-660): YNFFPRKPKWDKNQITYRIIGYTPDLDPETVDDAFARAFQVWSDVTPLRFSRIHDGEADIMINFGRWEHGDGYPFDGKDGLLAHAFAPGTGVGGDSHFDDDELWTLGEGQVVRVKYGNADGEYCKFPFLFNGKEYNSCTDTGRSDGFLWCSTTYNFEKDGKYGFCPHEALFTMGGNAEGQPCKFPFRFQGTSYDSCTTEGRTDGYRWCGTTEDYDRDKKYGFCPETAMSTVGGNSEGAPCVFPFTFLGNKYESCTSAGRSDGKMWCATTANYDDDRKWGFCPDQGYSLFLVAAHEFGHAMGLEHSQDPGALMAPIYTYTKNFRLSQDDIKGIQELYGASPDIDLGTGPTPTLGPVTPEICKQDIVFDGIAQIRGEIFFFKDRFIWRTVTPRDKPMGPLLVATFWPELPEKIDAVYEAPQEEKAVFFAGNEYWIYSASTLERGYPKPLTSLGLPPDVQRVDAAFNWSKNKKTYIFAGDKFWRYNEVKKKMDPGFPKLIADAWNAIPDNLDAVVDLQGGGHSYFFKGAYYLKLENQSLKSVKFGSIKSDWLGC
Description: (§1) FIGS. 1A-1E. (1A-1E) Line graphs of fluorescence from quenched fluorogenic peptides of the human CD28 stalk region incubated with (1A) various recombinant human sheddases, (1B) varying concentrations of rhMMP-2, (1C) MMP-2 and various concentrations of the MMP-2 specific inhibitor ARP-100, (1D) varying concentrations of rhMMP-13, or (1E) MMP-13 and broad MMP inhibitor TMI-1.
(§2) Matrix Metalloproteinases and ADAM's—Commercial recombinant human metalloproteinases MMP-1 (Cat. No. AS-55575), MMP-9 (Cat. No. AS-55576), MMP-10 (Cat. No. AS-72067), MMP-12 (Cat. No. AS-55525) and MMP-13 (Cat. No. AS-72257) are from AnaSpec. […]
(§3) Fluorogenic Assay—The assay was performed with indicated MMP's (10 or 30 ng) in 50 mM Tris, 10 mM CaCl2), 150 mM NaCl, 0.05% Brij-35, pH 7.5 or ADAM10/ADAM17 (5 μg/mL) in 25 mM Tris, 2.5 mM ZnCl2 and 0.005% Brij-35, pH 9. Cleavage of the fluorogenic substrate (10 μM) was measured at Ex340/Em490 nm using Biotek Synergy H1 spectrofluorometer.
(§4) It has been hypothesized that ADAM-10 and ADAM-17 may play a role in this shedding. […] When intact, the fluorochrome on the peptide is quenched and no fluorescence is measured. Cleavage of the peptide allows the fluorochrome to dissociate from the quencher and fluorescence is measurable by a dedicated reader. […] The peptide alone without any sheddase added was used as a control to normalize the readings. […]

MMP-2 [3] = target: T1, MMP-2; experiment: In-vitro cleavage assay of c-Myc tagged, biotinylated dimeric CD28 stalk region peptide by rhMMP-2 (ELISA detection of intact peptide); format: biochemical; settings: 25 ng and 50 ng MMP-2, 5-hour incubation; FIG. 4C
MMP-13 [4] = target: T2, MMP-13 (Homo sapiens, UniProt P45452); experiment: In-vitro cleavage assay of c-Myc tagged, biotinylated dimeric CD28 stalk region peptide by rhMMP-13 (ELISA detection of intact peptide); format: biochemical; settings: 25 ng and 50 ng MMP-13, 5-hour incubation; FIG. 4D
MMP-13 [5] = target: T2, MMP-13; experiment: Fluorogenic assay: cleavage of quenched fluorogenic human CD28 stalk region peptide by MMP-13; format: biochemical; settings: increasing dose of inhibitor; FIG. 1E
Description: as §1, §2, §3, §4

human CD28 stalk region = target: T3, human CD28 stalk region (Homo sapiens, UniProt P10747); experiment: Binding to human CD28 stalk region dimeric peptide by ELISA; settings: for binding to human CD28 stalk region sequence: ELISA, serial dilution of VHH clones, FIG. 5; for specific binding to MMP cleavage site of human CD28: WT versus L145K stalk region dimeric peptides, VHH 0.2-5 μg/mL, FIG. 7
T3 construct: human CD28 stalk region (His134-Pro152)

Molecule: TAPI
levels of sCD28 produced by chronically stimulated human PBMCs [1]: diminish levels of sCD28

Molecule: CC(C)ON(CC(=O)NO)S(=O)(=O)c1ccc(-c2ccccc2)cc1 [ARP-100]
cleavage of the CD28 stalk fluorogenic peptide by MMP-2 (MMP-2 [2]): cleavage decreased in a dose dependent manner

peptide cleaved by MMP-2 (MMP-2 [3]): < 5%
peptide cleaved by MMP-13 (MMP-13 [4]): < 5%
Molecule: mutated peptide: cMyc tagged, biotinylated dimeric CD28 stalk region peptide with L145K, EQKLISEEDLGGGGHVKGKHLCPSPKFPGPSKP (SEQ ID NO: 19) (EQKLISEEDLGGGGHVKGKHLCPSPKFPGPSKP-biotin; also: dimeric peptide) [reference compound]

Molecule: CC#CCOc1ccc(S(=O)(=O)N2CCSC(C)(C)[C@@H]2C(=O)NO)cc1 [TMI-1]
cleavage of the CD28 stalk fluorogenic peptide by MMP-13 (MMP-13 [5]): cleavage decreased in a dose dependent manner

B1: clone 4A4: llama-derived VHH single domain antibody binding the human CD28 stalk region, SEQ ID NO: 30, C-terminal His-tag (protein)
VHH: EVQLVESGGGLVQAGGSLRLSCAASGSLFSINAMAWYRQAPGKQRELVAAITSSGSTNYANSVKGRFTVSRDNAKNTMYLQMNSLKPEDTAVYYCVVDEYGSDYWIWGQGTQVTVSSAAAHHHHHH
modifications: C-terminal His-tag
binding to human CD28 stalk region sequence (human CD28 stalk region): specifically bind the stalk region of human CD28
specific binding to MMP cleavage site of human CD28 (human CD28 stalk region): bind specifically to MMP cleavage site of human CD28

B2: clone 4A1: llama-derived VHH single domain antibody binding the human CD28 stalk region, SEQ ID NO: 31, C-terminal His-tag (protein)
VHH: QVQLVESGGGLVQAGGSLRLSCAASGSIFSINAMGWYRQAPGKQRERVAAITSGGSTNYADSVKGRFTISRDNAKNTVYLQMNNLEPRDAGVYYCVVDLYGEDYWIWGQGTQVTVSSAAAHHHHHH
modifications: C-terminal His-tag
binding to human CD28 stalk region sequence (human CD28 stalk region): specifically bind the stalk region of human CD28
specific binding to MMP cleavage site of human CD28 (human CD28 stalk region): bind specifically to MMP cleavage site of human CD28
